Test results taken from US11827699 (dated 2023).
Residue numbers refer to the chain shown, from its start.

T1: mouse FcγRI (mouse, UniProt P26151)
T1 chain: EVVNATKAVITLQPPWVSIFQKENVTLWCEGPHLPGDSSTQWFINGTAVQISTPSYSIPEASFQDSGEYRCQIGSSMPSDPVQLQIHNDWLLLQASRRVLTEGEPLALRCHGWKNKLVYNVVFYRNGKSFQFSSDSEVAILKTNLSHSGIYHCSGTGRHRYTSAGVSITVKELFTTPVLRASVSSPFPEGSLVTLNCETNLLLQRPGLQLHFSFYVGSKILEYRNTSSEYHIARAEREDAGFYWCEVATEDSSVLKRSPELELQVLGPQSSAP

T2: human FcγRIIa R131 (human, UniProt P12318)
T2 chain: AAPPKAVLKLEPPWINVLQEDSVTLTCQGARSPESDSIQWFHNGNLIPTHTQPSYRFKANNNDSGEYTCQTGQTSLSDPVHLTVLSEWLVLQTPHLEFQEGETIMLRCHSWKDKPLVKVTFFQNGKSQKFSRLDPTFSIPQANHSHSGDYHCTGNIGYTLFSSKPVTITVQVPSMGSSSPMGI

T3: human FcγRIa (human, UniProt P12314)
T3 chain: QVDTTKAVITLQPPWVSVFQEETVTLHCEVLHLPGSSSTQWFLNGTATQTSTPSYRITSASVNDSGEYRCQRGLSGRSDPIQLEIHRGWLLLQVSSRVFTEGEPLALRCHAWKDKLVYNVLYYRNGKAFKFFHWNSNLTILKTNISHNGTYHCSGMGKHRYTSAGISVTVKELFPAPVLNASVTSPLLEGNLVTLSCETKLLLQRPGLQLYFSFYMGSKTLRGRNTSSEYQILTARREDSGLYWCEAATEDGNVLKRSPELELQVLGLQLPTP

T4: human FcγRIIb (human, UniProt P31994)
T4 chain: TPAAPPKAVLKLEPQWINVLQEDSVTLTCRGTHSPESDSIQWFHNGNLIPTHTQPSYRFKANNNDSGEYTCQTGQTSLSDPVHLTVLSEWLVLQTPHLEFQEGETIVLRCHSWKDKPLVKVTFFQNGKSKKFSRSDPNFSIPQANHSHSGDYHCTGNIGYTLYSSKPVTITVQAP

T5: mouse FcγRIV (mouse, UniProt A0A0B4J1G0)
T5 chain: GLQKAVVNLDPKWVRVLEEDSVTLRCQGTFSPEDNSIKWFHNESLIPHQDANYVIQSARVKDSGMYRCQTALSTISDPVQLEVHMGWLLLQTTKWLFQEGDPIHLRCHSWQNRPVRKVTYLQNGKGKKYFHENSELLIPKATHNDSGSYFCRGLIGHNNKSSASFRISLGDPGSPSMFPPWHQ

T6: human FcγRIIa H131 (human, UniProt P12318)
T6 chain: T2 chain with R132H

B1: IL6R-BP269 (antibody)
chain 1: QVQLQESGPGLVKPSETLSLTCAVSGHSISHDHAWSWVRQPPGEGLEWIGFISYSGITNYNPSLQGRVTISRDNSKNTLYLQMNSLRAEDTAVYYCARSLARTTAMDYWGEGTLVTVSSASTKGPSVFPLAPSSKSTSGGTAALGCLVKDYFPEPVTVSWNSGALTSGVHTFPAVLQSSGLYSLSSVVTVPSSSLGTQTYICNVNHKPSNTKVDKKVEPKSCDKTHTCPPCPAPELLGDDSVFLFPPKPKDTLMISRTPEVTCVVVDVSEEDGEVKFNWYVDGVEVHNAKTKPREEQDNSTYRVVSVLTVLHQDWLNGKEYKCKVSNKALPAPIEKTISKAKGQPREPQVYTLPPSRDELTKNQVSLTCLVKGFYPSDIAVEWESNGQPENNYKTTPPVLDSDGSFFLYSKLTVDKSRWQQGNVFSCSVMHEALHNHYTQESLSLSP
chain 2: not shown
B2: IL6R-BP494 (antibody)
chain 1: B1 chain 1 with S269A, A332R
chain 2: not shown
B3: IL6R-BP509 (antibody)
chain 1: B1 chain 1 with E235D, V266I, S269A, E274D
chain 2: not shown
B4: IL6R-BP487 (antibody)
chain 1: B1 chain 1 with E235D, V266I, S269A, D298Y, A332R, P398M
chain 2: not shown
B5: IL6R-BP500 (antibody)
chain 1: B1 chain 1 with V266I, S269A
chain 2: not shown
B6: IL6R-BP492 (antibody)
chain 1: B1 chain 1 with D239G, V266I, S269A, D298Y
chain 2: not shown
B7: IL6R-BP508 (antibody)
chain 1: B1 chain 1 with E235D, V266I, S269A, E274P
chain 2: not shown
B8: IL6R-BP497 (antibody)
chain 1: B1 chain 1 with E235D, V266I, S269A, D298Y, A329G, A332R
chain 2: not shown
B9: VH3/L(WT)-mIgG1 (antibody)
chain 1: QVQLQESGPGLVKPSETLSLTCAVSGHSISHDHAWSWVRQPPGEGLEWIGFISYSGITNYNPSLQGRVTISRDNSKNTLYLQMNSLRAEDTAVYYCARSLARTTAMDYWGEGTLVTVSSAKTTPPSVYPLAPGSAAQTNSMVTLGCLVKGYFPEPVTVTWNSGSLSSGVHTFPAVLQSDLYTLSSSVTVPSSTWPSETVTCNVAHPASSTKVDKKIVPRDCGCKPCICTVPEVSSVFIFPPKPKDVLTITLTPKVTCVVVDISKDDPEVQFSWFVDDVEVHTAQTQPREEQFNSTFRSVSELPIMHQDWLNGKEFKCRVNSAAFPAPIEKTISKTKGRPKAPQVYTIPPPKEQMAKDKVSLTCMITDFFPEDITVEWQWNGQPAENYKNTQPIMDTDGSYFVYSKLNVQKSNWEAGNTFTCSVLHEGLHNHHTEKSLSHSPGK
chain 2: not shown
B10: VH3/L(WT)-mIgG1-mF44 (antibody)
chain 1: B9 chain 1 with A323D
chain 2: not shown
B11: VH3/L(WT)-mIgG1-mF46 (antibody)
chain 1: B9 chain 1 with S235D, A323D
chain 2: not shown
B12: IL6R-BP514 (antibody)
chain 1: B1 chain 1 with E235D, E274F, D298Y
chain 2: not shown
B13: IL6R-BP517 (antibody)
chain 1: B1 chain 1 with E235D, E274I, D298Y
chain 2: not shown
B14: IL6R-BP348 (antibody)
chain 1: B1 chain 1 with E235D, S269A, D298Y
chain 2: not shown
B15: IL6R-BP520 (antibody)
chain 1: B1 chain 1 with E235D, E274M, D298Y
chain 2: not shown
B16: IL6R-BP220 (antibody)
chain 1: B1 chain 1 with E235D, E270D, A332K
chain 2: not shown
B17: IL6R-BP249 (antibody)
chain 1: B1 chain 1 with E235D, L236Y, E270D, A332R
chain 2: not shown
B18: IL6R-BP246 (antibody)
chain 1: B1 chain 1 with E235D, S269Q, E270D, K328A, A332R
chain 2: not shown
B19: IL6R-BP233 (antibody)
chain 1: B1 chain 1 with L236Y, E270H, D298Y, A332K
chain 2: not shown
B20: IL6R-BP243 (antibody)
chain 1: B1 chain 1 with E235D, L236Y, E270D, D298Y, A332R
chain 2: not shown
B21: IL6R-BP152 (antibody)
chain 1: B1 chain 1 with E235D, L236Y, E270H, G273P, K328A, A332K
chain 2: not shown
B22: IL6R-BP150 (antibody)
chain 1: B1 chain 1 with L236Y, E270H, G273P, D298Y, K328A, A332K
chain 2: not shown
B23: IL6R-BP151 (antibody)
chain 1: B1 chain 1 with E235D, L236Y, E270H, G273P, D298Y, K328A, A332K
chain 2: not shown
B24: IL6R-BP474 (antibody)
chain 1: B1 chain 1 with E235D, E270D, A332S, P333S
chain 2: not shown
B25: IL6R-BP475 (antibody)
chain 1: B1 chain 1 with E235D, E270D, A329G, A332S
chain 2: not shown
B26: IL6R-BP471 (antibody)
chain 1: B1 chain 1 with E235D, E270D, A332R, P333S
chain 2: not shown
B27: IL6R-BP239 (antibody)
chain 1: B1 chain 1 with E235D, L236Y, S269Q, E270D, K328A, A332R
chain 2: not shown
B28: IL6R-BP237 (antibody)
chain 1: B1 chain 1 with E235D, L236Y, S269Q, E270D, K328A, A332K
chain 2: not shown
B29: IL6R-BP228 (antibody)
chain 1: B1 chain 1 with L236Y, S269Q, E270D, D298Y, K328D, A332R
chain 2: not shown

Each binder was assayed against human FcγRIIIa V158 (human, UniProt P08637) (assay: SPR).
Chain of human FcγRIIIa V158 (P08637 17-208 F176V): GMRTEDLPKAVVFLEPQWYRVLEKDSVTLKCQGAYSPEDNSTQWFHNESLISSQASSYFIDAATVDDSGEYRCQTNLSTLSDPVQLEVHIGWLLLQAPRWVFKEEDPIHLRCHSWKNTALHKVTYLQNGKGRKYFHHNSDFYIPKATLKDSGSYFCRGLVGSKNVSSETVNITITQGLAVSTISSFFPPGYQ

Row | Binder | Kd
1 | B1 | 140000 nM
2 | B2 | 40000 nM
3 | B3 | 23000 nM
4 | B4 | 10000 nM
5 | B5 | 39000 nM
6 | B6 | 36000 nM
7 | B7 | 61000 nM
8 | B8 | 28000 nM

Target: T1, mouse FcγRI
Assay: SPR

Row | Binder | binding result
9 | B9 | no binding
10 | B10 | no binding
11 | B11 | no binding

Target: T2, human FcγRIIa R131
Assay: SPR

Row | Binder | Kd
12 | B12 | 30000 nM
13 | B13 | 2100 nM
14 | B14 | 700 nM
15 | B15 | 3000 nM

Target: T3, human FcγRIa
Assay: SPR

Row | Binder | Kd
16 | B16 | 20 nM
17 | B17 | 7 nM
18 | B18 | 8 nM
19 | B19 | 70 nM
20 | B20 | 3 nM

Target: T4, human FcγRIIb
Assay: SPR

Row | Binder | Kd
21 | B21 | 41 nM
22 | B22 | 31 nM
23 | B23 | 40 nM

Target: T2, human FcγRIIa R131
Assay: SPR
Remark: another data set of the same source

Row | Binder | Kd
24 | B24 | 3000 nM
25 | B25 | 1000 nM
26 | B26 | 800 nM

Target: T3, human FcγRIa
Assay: SPR
Remark: another data set of the same source

Row | Binder | Kd
27 | B21 | 73 nM
28 | B22 | 320 nM
29 | B23 | 84 nM

Target: T5, mouse FcγRIV
Assay: SPR

Row | Binder | binding result
30 | B9 | no binding
31 | B10 | no binding
32 | B11 | no binding

Target: T2, human FcγRIIa R131
Assay: SPR
Remark: another data set of the same source

Row | Binder | Kd
33 | B21 | 810 nM
34 | B22 | 550 nM
35 | B23 | 670 nM

Target: T2, human FcγRIIa R131
Assay: SPR
Remark: another data set of the same source

Row | Binder | Kd
36 | B1 | 2200 nM
37 | B2 | 250 nM
38 | B3 | 520 nM
39 | B4 | 39 nM
40 | B5 | 720 nM
41 | B6 | 920 nM
42 | B7 | 540 nM
43 | B8 | 85 nM

Target: T6, human FcγRIIa H131
Assay: SPR

Row | Binder | Kd
44 | B1 | 72000 nM
45 | B2 | 5400 nM
46 | B3 | 7900 nM
47 | B4 | 840 nM
48 | B5 | 25000 nM
49 | B6 | 16000 nM
50 | B7 | 20000 nM
51 | B8 | 960 nM

Target: T4, human FcγRIIb
Assay: SPR
Remark: another data set of the same source

Row | Binder | Kd
52 | B27 | 60 nM
53 | B28 | 100 nM
54 | B29 | 40 nM

Target: T3, human FcγRIa
Assay: SPR
Remark: another data set of the same source

Row | Binder | Kd
55 | B1 | 14 nM
56 | B2 | 3.9 nM
57 | B3 | 1.1 nM
58 | B4 | 1.2 nM
59 | B5 | 2.3 nM
60 | B6 | 0.79 nM
61 | B7 | 1.4 nM
62 | B8 | 2.1 nM

Target: T4, human FcγRIIb
Assay: SPR
Remark: another data set of the same source

Row | Binder | Kd
63 | B1 | 110 nM
64 | B2 | 6.6 nM
65 | B3 | 18 nM
66 | B4 | 1.2 nM
67 | B5 | 24 nM
68 | B6 | 24 nM
69 | B7 | 21 nM
70 | B8 | 4.1 nM
